Measured values reported in patent publication US20230357342A1 (published 2023).

T1: IL-18 receptor on HEK-Blue IL18R reporter cells (UniProt Q13478 19-541; O95256 20-599, limits assumed)
T1 sequence (looked up) 1: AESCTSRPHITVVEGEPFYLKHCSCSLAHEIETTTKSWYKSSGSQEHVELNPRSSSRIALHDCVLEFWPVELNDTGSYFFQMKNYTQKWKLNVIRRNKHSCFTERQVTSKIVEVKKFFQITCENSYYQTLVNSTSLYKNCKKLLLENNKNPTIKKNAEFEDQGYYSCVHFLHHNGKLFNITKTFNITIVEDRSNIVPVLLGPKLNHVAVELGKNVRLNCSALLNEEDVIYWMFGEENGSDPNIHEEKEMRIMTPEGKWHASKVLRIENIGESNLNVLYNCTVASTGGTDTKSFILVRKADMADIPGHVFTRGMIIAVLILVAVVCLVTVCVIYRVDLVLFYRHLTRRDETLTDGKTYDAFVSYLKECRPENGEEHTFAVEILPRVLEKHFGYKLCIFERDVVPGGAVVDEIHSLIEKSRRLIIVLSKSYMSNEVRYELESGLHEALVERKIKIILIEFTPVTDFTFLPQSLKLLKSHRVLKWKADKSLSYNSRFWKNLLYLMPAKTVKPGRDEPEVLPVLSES
T1 sequence (looked up) 2: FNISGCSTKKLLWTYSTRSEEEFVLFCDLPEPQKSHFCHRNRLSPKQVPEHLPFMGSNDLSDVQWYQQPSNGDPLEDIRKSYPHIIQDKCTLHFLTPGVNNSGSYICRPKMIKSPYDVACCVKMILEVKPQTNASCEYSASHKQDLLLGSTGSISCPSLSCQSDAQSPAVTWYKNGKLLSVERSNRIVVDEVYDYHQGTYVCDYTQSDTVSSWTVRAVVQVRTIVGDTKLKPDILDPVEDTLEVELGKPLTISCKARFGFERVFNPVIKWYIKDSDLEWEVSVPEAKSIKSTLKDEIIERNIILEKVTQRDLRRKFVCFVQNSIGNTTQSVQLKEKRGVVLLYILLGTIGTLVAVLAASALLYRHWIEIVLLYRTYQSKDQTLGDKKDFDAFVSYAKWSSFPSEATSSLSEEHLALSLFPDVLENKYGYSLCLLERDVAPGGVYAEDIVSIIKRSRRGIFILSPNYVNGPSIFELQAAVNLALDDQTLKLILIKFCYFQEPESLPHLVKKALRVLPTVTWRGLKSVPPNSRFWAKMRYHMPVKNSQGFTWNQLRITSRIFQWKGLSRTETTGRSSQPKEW


The binders below were run against T1, IL-18 receptor on HEK-Blue IL18R … (assay: cell-based or functional assay).

Row | EC50, HEK-Blue IL18R reporter (SEAP) [nM] | Binder
1 | 0.053 | modified IL-18 polypeptide SEQ ID NO: 30 (E6K, V11I, C38A, K53A, T63A, C76A, C127A) (ligand) YFGKLKSKLSIIRNLNDQVLFIDQGNRPLFEDMTDSDARDNAPRTIFIISMYADSQPRGMAVAISVKCEKISTLSAENKIISFKEMNPPDNIKDTKSDIIFFQRSVPGHDNKMQFESSSYEGYFLAAEKERDLFKLILKKEDELGDRSIMFTVQNED
2 | 11.7 | modified IL-18 polypeptide SEQ ID NO: 217 (V11I, C38A, N41A, K53A, C76A, C127A) (ligand) YFGKLESKLSIIRNLNDQVLFIDQGNRPLFEDMTDSDARDAAPRTIFIISMYADSQPRGMAVTISVKCEKISTLSAENKIISFKEMNPPDNIKDTKSDIIFFQRSVPGHDNKMQFESSSYEGYFLAAEKERDLFKLILKKEDELGDRSIMFTVQNED
3 | 0.52 | modified IL-18 polypeptide SEQ ID NO: 216 (V11I, C38A, D40A, K53A, C76A, C127A) (ligand) YFGKLESKLSIIRNLNDQVLFIDQGNRPLFEDMTDSDARANAPRTIFIISMYADSQPRGMAVTISVKCEKISTLSAENKIISFKEMNPPDNIKDTKSDIIFFQRSVPGHDNKMQFESSSYEGYFLAAEKERDLFKLILKKEDELGDRSIMFTVQNED
4 | 7.28 | modified IL-18 polypeptide SEQ ID NO: 209 (F2A, V11I, C38A, K53A, C76A, C127A) (ligand) YAGKLESKLSIIRNLNDQVLFIDQGNRPLFEDMTDSDARDNAPRTIFIISMYADSQPRGMAVTISVKCEKISTLSAENKIISFKEMNPPDNIKDTKSDIIFFQRSVPGHDNKMQFESSSYEGYFLAAEKERDLFKLILKKEDELGDRSIMFTVQNED
5 | 0.98 | modified IL-18 polypeptide SEQ ID NO: 204 (V11I, C38A, K53A, C76A, C127A) (ligand) YFGKLESKLSIIRNLNDQVLFIDQGNRPLFEDMTDSDARDNAPRTIFIISMYADSQPRGMAVTISVKCEKISTLSAENKIISFKEMNPPDNIKDTKSDIIFFQRSVPGHDNKMQFESSSYEGYFLAAEKERDLFKLILKKEDELGDRSIMFTVQNED
6 | 11.9 | modified IL-18 polypeptide SEQ ID NO: 215 (V11I, E31A, D37A, C38A, K53A, C76A, C127A) (ligand) YFGKLESKLSIIRNLNDQVLFIDQGNRPLFADMTDSAARDNAPRTIFIISMYADSQPRGMAVTISVKCEKISTLSAENKIISFKEMNPPDNIKDTKSDIIFFQRSVPGHDNKMQFESSSYEGYFLAAEKERDLFKLILKKEDELGDRSIMFTVQNED
7 | 1 | modified IL-18 polypeptide SEQ ID NO: 208 (V11I, C38A, K53A, D54A, C76A, C127A) (ligand) YFGKLESKLSIIRNLNDQVLFIDQGNRPLFEDMTDSDARDNAPRTIFIISMYAASQPRGMAVTISVKCEKISTLSAENKIISFKEMNPPDNIKDTKSDIIFFQRSVPGHDNKMQFESSSYEGYFLAAEKERDLFKLILKKEDELGDRSIMFTVQNED
8 | 14.1 | modified IL-18 polypeptide SEQ ID NO: 214 (V11I, D37A, C38A, K53A, C76A, C127A) (ligand) YFGKLESKLSIIRNLNDQVLFIDQGNRPLFEDMTDSAARDNAPRTIFIISMYADSQPRGMAVTISVKCEKISTLSAENKIISFKEMNPPDNIKDTKSDIIFFQRSVPGHDNKMQFESSSYEGYFLAAEKERDLFKLILKKEDELGDRSIMFTVQNED
9 | 6.6 | modified IL-18 polypeptide SEQ ID NO: 210 (V11I, E31A, C38A, K53A, C76A, C127A) (ligand) YFGKLESKLSIIRNLNDQVLFIDQGNRPLFADMTDSDARDNAPRTIFIISMYADSQPRGMAVTISVKCEKISTLSAENKIISFKEMNPPDNIKDTKSDIIFFQRSVPGHDNKMQFESSSYEGYFLAAEKERDLFKLILKKEDELGDRSIMFTVQNED
10 | 0.084 | modified IL-18 polypeptide SEQ ID NO: 61 (E6K, C38A, K53A, C76A) (ligand) YFGKLKSKLSVIRNLNDQVLFIDQGNRPLFEDMTDSDARDNAPRTIFIISMYADSQPRGMAVTISVKCEKISTLSAENKIISFKEMNPPDNIKDTKSDIIFFQRSVPGHDNKMQFESSSYEGYFLACEKERDLFKLILKKEDELGDRSIMFTVQNED
11 | 0.0139 | modified IL-18 polypeptide SEQ ID NO: 63 (E6K, C38A, K53A, C76A, C127A) (ligand) YFGKLKSKLSVIRNLNDQVLFIDQGNRPLFEDMTDSDARDNAPRTIFIISMYADSQPRGMAVTISVKCEKISTLSAENKIISFKEMNPPDNIKDTKSDIIFFQRSVPGHDNKMQFESSSYEGYFLAAEKERDLFKLILKKEDELGDRSIMFTVQNED
12 | 0.268 | modified IL-18 polypeptide SEQ ID NO: 59 (E6K, C38A, K53A) (ligand) YFGKLKSKLSVIRNLNDQVLFIDQGNRPLFEDMTDSDARDNAPRTIFIISMYADSQPRGMAVTISVKCEKISTLSCENKIISFKEMNPPDNIKDTKSDIIFFQRSVPGHDNKMQFESSSYEGYFLACEKERDLFKLILKKEDELGDRSIMFTVQNED

Second part, the binder before the results:

Row | Binder | EC50, HEK-Blue IL18R reporter (SEAP) [nM]
13 | modified IL-18 polypeptide SEQ ID NO: 220 (V11I, C38A, K53A, C76A, H109A, C127A) (ligand) YFGKLESKLSIIRNLNDQVLFIDQGNRPLFEDMTDSDARDNAPRTIFIISMYADSQPRGMAVTISVKCEKISTLSAENKIISFKEMNPPDNIKDTKSDIIFFQRSVPGADNKMQFESSSYEGYFLAAEKERDLFKLILKKEDELGDRSIMFTVQNED | 19.5
14 | modified IL-18 polypeptide SEQ ID NO: 218 (V11I, C38A, K53A, C76A, C127A, D132A) (ligand) YFGKLESKLSIIRNLNDQVLFIDQGNRPLFEDMTDSDARDNAPRTIFIISMYADSQPRGMAVTISVKCEKISTLSAENKIISFKEMNPPDNIKDTKSDIIFFQRSVPGHDNKMQFESSSYEGYFLAAEKERALFKLILKKEDELGDRSIMFTVQNED | 1.95
15 | modified IL-18 polypeptide SEQ ID NO: 213 (V11I, S36A, C38A, K53A, C76A, C127A) (ligand) YFGKLESKLSIIRNLNDQVLFIDQGNRPLFEDMTDADARDNAPRTIFIISMYADSQPRGMAVTISVKCEKISTLSAENKIISFKEMNPPDNIKDTKSDIIFFQRSVPGHDNKMQFESSSYEGYFLAAEKERDLFKLILKKEDELGDRSIMFTVQNED | 0.25
16 | modified IL-18 polypeptide SEQ ID NO: 212 (V11I, D35A, C38A, K53A, C76A, C127A) (ligand) YFGKLESKLSIIRNLNDQVLFIDQGNRPLFEDMTASDARDNAPRTIFIISMYADSQPRGMAVTISVKCEKISTLSAENKIISFKEMNPPDNIKDTKSDIIFFQRSVPGHDNKMQFESSSYEGYFLAAEKERDLFKLILKKEDELGDRSIMFTVQNED | 13.1
17 | modified IL-18 polypeptide SEQ ID NO: 205 (V11I, C38A, K53A, T63A, C76A, C127A) (ligand) YFGKLESKLSIIRNLNDQVLFIDQGNRPLFEDMTDSDARDNAPRTIFIISMYADSQPRGMAVAISVKCEKISTLSAENKIISFKEMNPPDNIKDTKSDIIFFQRSVPGHDNKMQFESSSYEGYFLAAEKERDLFKLILKKEDELGDRSIMFTVQNED | 0.17
18 | modified IL-18 polypeptide SEQ ID NO: 206 (V11I, C38A, K53A, S55A, C76A, C127A) (ligand) YFGKLESKLSIIRNLNDQVLFIDQGNRPLFEDMTDSDARDNAPRTIFIISMYADAQPRGMAVTISVKCEKISTLSAENKIISFKEMNPPDNIKDTKSDIIFFQRSVPGHDNKMQFESSSYEGYFLAAEKERDLFKLILKKEDELGDRSIMFTVQNED | 3.63
19 | modified IL-18 polypeptide SEQ ID NO: 219 (V11I, C38A, K53A, C76A, G108A, C127A) (ligand) YFGKLESKLSIIRNLNDQVLFIDQGNRPLFEDMTDSDARDNAPRTIFIISMYADSQPRGMAVTISVKCEKISTLSAENKIISFKEMNPPDNIKDTKSDIIFFQRSVPAHDNKMQFESSSYEGYFLAAEKERDLFKLILKKEDELGDRSIMFTVQNED | 15.6
20 | modified IL-18 polypeptide SEQ ID NO: 207 (V11I, C38A, M51G, K53A, C76A, C127A) (ligand) YFGKLESKLSIIRNLNDQVLFIDQGNRPLFEDMTDSDARDNAPRTIFIISGYADSQPRGMAVTISVKCEKISTLSAENKIISFKEMNPPDNIKDTKSDIIFFQRSVPGHDNKMQFESSSYEGYFLAAEKERDLFKLILKKEDELGDRSIMFTVQNED | 0.8
21 | modified IL-18 polypeptide SEQ ID NO: 211 (V11I, T34A, C38A, K53A, C76A, C127A) (ligand) YFGKLESKLSIIRNLNDQVLFIDQGNRPLFEDMADSDARDNAPRTIFIISMYADSQPRGMAVTISVKCEKISTLSAENKIISFKEMNPPDNIKDTKSDIIFFQRSVPGHDNKMQFESSSYEGYFLAAEKERDLFKLILKKEDELGDRSIMFTVQNED | 0.7
22 | modified IL-18 polypeptide SEQ ID NO: 60 (E6K, C38Q, K53A) (ligand) YFGKLKSKLSVIRNLNDQVLFIDQGNRPLFEDMTDSDQRDNAPRTIFIISMYADSQPRGMAVTISVKCEKISTLSCENKIISFKEMNPPDNIKDTKSDIIFFQRSVPGHDNKMQFESSSYEGYFLACEKERDLFKLILKKEDELGDRSIMFTVQNED | 0.203
23 | modified IL-18 polypeptide SEQ ID NO: 62 (E6K, C38A, K53A, C127A) (ligand) YFGKLKSKLSVIRNLNDQVLFIDQGNRPLFEDMTDSDARDNAPRTIFIISMYADSQPRGMAVTISVKCEKISTLSCENKIISFKEMNPPDNIKDTKSDIIFFQRSVPGHDNKMQFESSSYEGYFLAAEKERDLFKLILKKEDELGDRSIMFTVQNED | 0.17
